Test results as given in patent US9803012B2, “Compositions and methods for regulating SAS1R” (UNIVERSITY OF VIRGINIA PATENT FOUNDATION, priority 2005, dated 2017).

Legend:
Metaphase II eggs = experiment: Egg labeling by indirect immunofluorescence; format: cell-based, mouse; conditions: 100 μg/ml protein, 45 min
Protocol: Metaphase II eggs were obtained as previously described (Coonrod et al, 1999) and incubated with 5% NGS/media for 30 min. Oocytes were washed five times in TYH medium and incubated with 100 μg/ml recmSLLP1 or 100 μg/ml lysozymes for 45 min at 37° C. and 5% CO2. Oocytes were washed five times and incubated with guinea pig anti-recmSLLP1 polyclonal antibody (1:50), sheep anti-human lysozyme (1:25) or rabbit anti-chicken lysozyme (1:400) in 5% NGS/media for 1 h at 37° C. and 5% CO2. Oocytes were washed five times and incubated with donkey anti-guinea pig/Texas Red antibody (1:200) or goat anti-guinea pig/FITC antisera 1:200), donkey anti-sheep and goat anti-rabbit FITC-labeled secondary antibody (1:200) (Jackson ImmunoResearch), respectively in 5% NGS/media for 1 h at […] 37° C. and 5% CO2. Oocytes were washed and mounted in media onto glass slides and visualized under a Zeiss Standard 18 ultraviolet microscope. Images were captured by using MrGrab 1.0 (Carl Zeiss Vision GmbH, Germany).

mouse sperm-egg fusion = conditions: cited from earlier work
oolemma = conditions: sea urchin; cited from earlier work
mouse eggs = experiment: Binding of SLLP2 to mouse eggs; format: cell-based; conditions: human SLLP2
Protocol: To analyze the biologic activity of human SLLP2, it was determined whether it would bind to an egg, in this case, a mouse egg.
For comparison to the use of human sperm SLLP2, an experiment was performed to determine if purified mouse SLLP2 would bind to Zona intact mouse eggs. […] Competitive assays were then performed to determine whether the addition of recombinant mouse SLLP2 to a mixture of mouse sperm and mouse eggs could inhibit binding of sperm and eggs. Various amounts of recombinant mouse SLLP2 were added (5, 25, 50, 100, and 200 μg/ml) and the number of sperm bound per egg was determined.

zona-free mouse eggs = experiment: In vitro fertilization with zona-free eggs (sperm-oolemma binding and fusion); format: cell-based; conditions: 25 μg of human SLLP1
Protocol: For the sperm-oolemma binding assay, two cauda epididymides were placed in 900 μl drops of fertilization medium under paraffin oil for the dense mass of spermatozoa to flow freely for ˜15 min and then diluted at 1×10^6/ml for 3 h of capacitation. Cumulus oocyte complexes were placed in 200 μl drops of TYH medium under paraffin oil. Cumulus cells were removed by treating the oocytes for 3 min with 1 mg/ml hyaluronidase in TYH medium and then washed 8 times in 50 μl drops. Zona pellucidae were loosened by treating the oocytes with 10 μg/ml chymotrypsin in TYH media for 1 min and loosened zonae were removed by mechanical agitation using a pulled Pasteur pipette. The oocytes were then washed 10 times and allowed to recover from chymotrypsin treatment by incubating in TYH media for 3 h, following which, they were stained with 10 μg/ml Hoechst dye for 10 min, and then gently washed. […]
To compare the effects of recmSLLP1 with human and chicken c lysozymes, spermatozoa were first incubated under standard capacitating conditions. Oocytes were pre-incubated for 45 min before insemination with recmSLLP1 (0.1 to 200 μg/ml) or with hSLLP1 (25 μg/ml) or with chicken or human lysozyme (50 μg/ml, 100 μg/ml). Untreated capacitated sperm were then added to the incubation drops containing the treated eggs with a final sperm concentration of 2.5×10^4/ml. Thus, in all the experiments performed the sera, the recombinant protein, or the lysozyme was present in the incubation droplet during gamete interaction. After 30 min of gamete co-incubation, oocytes were gently washed 5 times in TYH medium and placed between a microscope slide and an elevated coverslip and visualized at 160×. Binding to the oocyte was scored by counting the number of bound spermatozoa per oocyte using phase contrast. Fusion with the egg was scored by counting the number of decondensed sperm heads within each oocyte using fluorescence microscopy.

cumulus intact oocytes = experiment: Mouse in vitro fertilization, capacitated sperm pre-incubated with rSAS1R; format: cell-based
Protocol: Epididymal sperm from sexually mature and oocytes from 6 to 8 weeks old ICR mice were used for gamete studies and IVF. Capacitated sperm in presence or absence of rSAS1R were used to inseminate cumulus intact oocytes and fertilization was scored by counting two cell embryos.
ICR mice were used in all experiments. Suspensions of epididymal spermatozoa from sexually mature male mice were prepared for insemination of isolated oocytes. Oocytes were obtained from 6 to 8 weeks old females superovulated with 10 IU PMSG and 10 IU hCG, injected intraperitoneally at 48 h intervals. Females were killed 16 h after hCG injection, and both oviducts were immediately removed, placed in mineral oil, and flushed to recover oocytes.
In vitro fertilization was conducted with cumulus intact oocytes using sperm dispersed from cauda epididymides. Sperm were placed for 5 min in 200 μl drops of fertilization medium under paraffin oil. […] The eggs were then placed in 5 μl of fertilization medium between a microscope slide and an elevated coverslip, and visualized at 160× using light and fluorescence microscopy (Zeiss Axioplan). Two-cell embryos were scored as fertilized, while one-celled oocytes were scored as unfertilized.

[1] = biological target: T1, fluorescent tagged synthetic peptide (Mus musculus, UniProt Q6HA09); experiment: Protease activity assay of SAS1R (EnzChek Peptidase/Protease Assay Kit, FRET); format: biochemical
T1 construct: The mature rSAS1R (414 residues); 20 vector-encoded residues including His6 (pET-28b) (N); made in house; host or cells: E. coli BL21DE3
T1 sequence (Q6HA09 22-435): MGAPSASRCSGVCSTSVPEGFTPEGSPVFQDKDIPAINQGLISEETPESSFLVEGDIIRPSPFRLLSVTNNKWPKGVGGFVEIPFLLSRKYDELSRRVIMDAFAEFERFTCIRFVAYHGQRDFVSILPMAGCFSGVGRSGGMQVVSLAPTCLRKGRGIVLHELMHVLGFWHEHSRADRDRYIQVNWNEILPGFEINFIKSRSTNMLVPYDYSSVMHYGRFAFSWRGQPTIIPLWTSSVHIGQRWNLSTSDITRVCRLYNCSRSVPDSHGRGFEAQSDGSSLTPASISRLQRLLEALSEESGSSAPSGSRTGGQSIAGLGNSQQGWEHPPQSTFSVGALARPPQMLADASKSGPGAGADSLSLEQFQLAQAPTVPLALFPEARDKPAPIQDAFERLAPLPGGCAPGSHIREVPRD
Protocol: Protease activity was assayed with purified soluble rSAS1R using the EnzChek® Peptidase/Protease Assay Kit.
Protease activity was assayed in serial dilutions (0-2000 ng) of purified bacterial recombinant SAS1R using the EnzChek® Peptidase/Protease Assay Kit (Molecular Probes, OR), which provides a FRET (fluorescence resonance energy transfer)-based method for quantitation of a wide range of protease activities. This assay was performed in 100 μl size reactions and repeated three times with varying concentrations of recombinant SAS1R. Fluorescence was measured over 24 h following the manufacturer's protocol. Protease activity of recombinant SAS1R appeared within 1 h and increased within 24 h. SLLP1 was used as a negative control. The assay method was validated using purified trypsin as a positive control (Sigma, MO).

capacitated sperm = experiment: Co-localization of rSAS1R binding sites and SLLP1 on sperm; format: cell-based, mouse; conditions: capacitated sperm incubated with rSAS1R, probed with both antibodies
Protocol: Zona intact-, zona free oocytes, early embryos and sperm were collected as before (10), blocked and probed with 1st and 2nd antibody and imaged with UV-microscopy. For co-LC studies, gametes were incubated with soluble rSAS1R or rSLLP1, washed, probed with 1st- and 2nd antibodies and imaged with UV-microscopy.
Similarly capacitated mouse sperm were also examined for co-localization of SAS1R binding sites and SLLP1 localization. Sperms were incubated with increasing concentrations (0-100 μg/ml) of rSAS1R for 1 h, then sperm were washed two times at 700 g for 8 min and droplets were made on glass slide. These droplets were air-dried for 30 min and rehydrated again with 20 μl of PBS for 5 min. Now in the droplets, sperm were fixed with 20 μl of 4% paraformaldehyde for 25 min and then washed with 20 μl of PBS thrice for 5 min each. Now the droplets were blocked with 10% NGS for 30 min and incubated with guinea pig anti-rSAS1R polyclonal antibody (1:200) and rat anti-rSLLP1 polyclonal antibody (1:200) simultaneously, in 0.1% NGS/media for 1 h at 37° C. and 5% CO2. All the droplets were washed three times and incubated with goat anti-guinea pig/Cy3 red antibody (1:200, Jackson ImmunoResearch, PA) and goat anti-rat/FITC green antibody (1:200, Jackson ImmunoResearch, PA), in 0.1% NGS/media for 1 h at 37° C. and 5% CO2. Sperms were washed and mounted in media on glass slides. […]

human lysozyme: conventional human c lysozyme used as comparator
fluorescence of mouse oocytes after incubation with protein and respective antibody (Metaphase II eggs): did not show any fluorescence

chicken lysozyme: conventional chicken c lysozyme used as comparator
fluorescence of mouse oocytes after incubation with protein and respective antibody (Metaphase II eggs): did not show any fluorescence

c1cnc2c(c1)ccc1cccnc12 [1,10-phenanthroline]
sperm-egg binding (mouse sperm-egg fusion): without reducing sperm-egg binding
sperm-egg fusion (mouse sperm-egg fusion): inhibited mouse sperm-egg fusion
binding of acrosome reacted sperm to the oolemma (oolemma): no effect
block of membrane fusion (oolemma): 95%

B1: human SLLP2: recombinant human SLLP2 expressed in E. coli (SEQ ID NO:18) (protein, listed as Homo sapiens)
chain: MKAWGTVVVTLATLMVVTVDAKIYERCELAARLERAGLNGYKGYGVGDWLCMAHYESGFDTAFVDHNPDGSSEYGIFQLNSAWWCDNGITPTKNLCHMDCHDLLNRHILDDIRCAKQIVSSQNGLSAWTSWRLHCSGHDLSEWLKGCDMHVKIDPKIHP
binding to mouse eggs (cross-species) (mouse eggs): can indeed bind with mouse eggs

B2: human SLLP1: human sperm lysozyme-like protein 1 (SEQ ID NO:14) (protein, listed as Homo sapiens)
chain: MVSALRGAPLIRVHSSPVSSPSVSGPRRLVSCLSSQSSALSQSGGGSTSAAGIEARSRALRRRWCPAGIMLLALVCLLSCLLPSSEAKLYGRCELARVLHDFGLDGYRGYSLADWVCLAYFTSGFNAAALDYEADGSTNNGIFQINSRRWCSNLTPNVPNVCRMYCSDLLNPNLKDTVICAMKITQEPQGLGYWEAWRHHCQGKDLTEWVDGCDF
sperm-egg binding and fusion (zona-free mouse eggs): maximally inhibited

B3: rSAS1R: mature recombinant mouse SAS1R (414 residues; SEQ ID NO:6) expressed in E. coli with histidine tag, affinity purified (protein, listed as Mus musculus)
chain: T1 sequence (Q6HA09 22-435)
modifications: His tag
reduction in fertilization (cumulus intact oocytes; 10 μg/ml rSAS1R): not statistically significant
reduction in fertilization (cumulus intact oocytes; 25 μg/ml rSAS1R, P≦0.03, two cell embryos scored): 89%
proteolytic activity ([1]; 200-2000 ng rSAS1R in 100 μl assay, FRET, up to 24 h): dose dependent proteolytic activity
time until protease activity appeared ([1]; fluorescence measured over 24 h): ≤ 1 h
binding to sperm (capacitated sperm): binds to acrosome of sperm and co-localizes with native SLLP1
